The data set relates to Bacillus subtilis. Nature of the data set: cleaved RNA product abundance (RNA/gDNA barcode ratio) relative to median wild-type variant (ratio to wild type); higher = more accumulation of the downstream cleavage product. The note with it: cleavage site: cggR-gapA (positions -7 to +36 mutated). As to the method:
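MPRA in B. subtilis. Mutagenized RNase Y cleavage-site regions (9% mutation rate) were inserted into a barcoded reporter mRNA (truncated aprE or tetM). Cells were grown in LB at 37°C to OD600 0.3. The cleaved RNA isoform was gel-purified and its barcodes counted; the RNA:gDNA barcode ratio was normalised to the median wild-type variant, and the median over barcodes is reported per variant. The printed sequence is the variable window only; the reporter flanks are not printed.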

Where [1] appears, read: experiment (reporter, strain, medium): exp 2b: truncated aprE reporter, strain BJT200.
The mark [2] stands for this setting: experiment (reporter, strain, medium): exp 4a: truncated aprE reporter, strain BJT201 with 2% xylose (RNase J1 expressed).

As to “ACAGACGAAGGAGCCGCAAAGAAGCTATTAAGGGATGAATAATCCCTAAATATAAATATCTCTCACTTATTTAAA”, the “cleaved RNA product abundance” value came out at 0.346 under setting [1] and 0.407 under setting [2].
As for “ACAGACGAAGGAGCCGCAAAGAAGCTATTAAGGGATGAATAATCCCTCAATATAAAAATCTCTCACTTATTTAAA”, the “cleaved RNA product abundance” value under setting [2] was 0.713.
The same measure, in the same setting: the same measure for “ACAGACGAAGGAGCCGCAAAGAAGCTATTAAGGGATGAATAATCCCTCAATATAAATAACTCTCACTTATTTAAA”: 0.674.
As for “ACAGACGAAGGAGCCGCAAAGAAGCTATTAAGGGATGAATAATCCCTCAATATAAATATCTCTCACTTATTTAAA”, the “cleaved RNA product abundance” value under setting [1] was 0.571; the “cleaved RNA product abundance” value under setting [2] is 0.615; the “cleaved RNA product abundance” value (experiment (reporter, strain, medium): exp 6: tetM reporter, strain 168) came out at 0.588.
Consider “ACAGACGAAGGAGCCGCAAAGAAGCTATTAAGGGATGAATAATCCCTCAATTTAAATATCTCTCACTTATTTAAA”, for which the “cleaved RNA product abundance” value under setting [2] was found to be 0.0606.
For the sequence “ACAGACGAAGGAGCCGCAAAGAAGCTATTAAGGGATGAATAATCCCTCAGTATAAATATCTCTCACTTATTTAAA”, the “cleaved RNA product abundance” value under setting [1] amounted to 0.135.
As for “ACAGACGAAGGAGCCGCAAAGAAGCTATTAAGGGATGAATAATCCCTGAATATAAATATCTCTCACTTATTTAAA”, under setting [2], the “cleaved RNA product abundance” value was found to be 0.343.
On the same count and under the same terms, next, “ACAGACGAAGGAGCCGCAAAGAAGCTATTAAGGGATGAATAATCCCTTAATATAAATATCTCTCACTTATTTAAA”: 0.827.
For the sequence “ACAGACGAAGGAGCCGCAAAGAAGCTATTAAGGGATGAATAATTCCTCAATATAAATATCTCTCACTTATTTAAA”, the “cleaved RNA product abundance” value under setting [1] was 0.432.
Consider “ACAGACGAAGGAGCCGCAAAGAAGCTATTAAGGGATGAATACTCCCTCAATATAAATATCTCTCACTTATTTAAA”, for which, under setting [2], the “cleaved RNA product abundance” value was determined as 0.458.
Regarding “ACAGACGAAGGAGCCGCAAAGAAGCTATTAAGGGATGAATATTCCCTCAATATAAATATCTCTCACTTATTTAAA”, the “cleaved RNA product abundance” value came out at 0.469 under setting [1] and 0.56 under setting [2].
For “ACAGACGAAGGAGCCGCAAAGAAGCTATTAAGGGATGTATAATCCCTCAATATAAATATCTCTCACTTATTTAAA”, the “cleaved RNA product abundance” value under setting [2] was determined as 0.576.
Regarding “ACAGACGAAGGAGCCGCAAAGAAGCTATTAAGGTATGAATAATCCCTCAATATAAATATCTCTCACTTATTTAAA”, the “cleaved RNA product abundance” value under setting [1] turned out to be 0.0903 and the “cleaved RNA product abundance” value under setting [2] was determined as 0.0903.
“ACAGACGAAGGAGCCGCAAAGAAGCTATTAAGTGATGAATAATCCCTCAATATAAATATCTCTCACTTATTTAAA”: the “cleaved RNA product abundance” value under setting [2] worked out at 0.113.
As to “ACAGACGAAGGAGCCGCAAAGAAGCTATTAATGGATGAATAATCCCTCAATATAAATATCTCTCACTTATTTAAA”, under setting [2], the “cleaved RNA product abundance” value amounted to 0.123.
Regarding “ACAGACGAAGGAGCCGCAAAGAAGCTATTATGGGATGAATAATCCCTCAATATAAATATCTCTCACTTATTTAAA”, the “cleaved RNA product abundance” value under setting [2] came out at 0.346.
The same measure, in the same setting: the same measure for “ACAGACGAAGGAGCCGCAAAGAAGGAATTAAGGGATGAATAATCCCTCAATATAAATATCTCTCACTTATTTAAA”: 0.353; for “ACAGACGAAGGAGCCGCAAAGAAGGTATTAAAGGATGAATAATCCCTCAATATAAATATCTCTCACTTATTTAAA”: 0.189; for “ACAGACGAAGGAGCCGCAAAGAAGGTATTAAGAGATGAATAATCCCTCAATATAAATATCTCTCACTTATTTAAA”: 0.171.
For the sequence “ACAGACGAAGGAGCCGCAAAGAAGGTATTAAGGAATGAATAATCCCTCAATATAAATATCTCTCACTTATTTAAA”, the “cleaved RNA product abundance” value by setting is: under setting [1], 0.145; under setting [2], 0.194.
Regarding “ACAGACGAAGGAGCCGCAAAGAAGGTATTAAGGCATGAATAATCCCTCAATATAAATATCTCTCACTTATTTAAA”, the “cleaved RNA product abundance” value under setting [2] came to 0.101.
Still for that read-out and setting: next, “ACAGACGAAGGAGCCGCAAAGAAGGTATTAAGGGATAAATAATCCCTCAATATAAATATCTCTCACTTATTTAAA”: 1.29.
“ACAGACGAAGGAGCCGCAAAGAAGGTATTAAGGGATGAAAAATCCCTCAATATAAATATCTCTCACTTATTTAAA”: the “cleaved RNA product abundance” value under setting [1] was 1.25.

For the origin of these results see the supplement of paper PMC11780869.
